The nature of data set [1]: cellular trafficking, method not given. To be noted: glycan lost; control: wild type.
A short description of data set [2]: secretion into CHO culture medium (unpublished data). The following applies: glycan lost; control: wild type.

B1: angiotensin I-converting enzyme (somatic ACE): N1162Q (protein)
parent chain: MGAASGRRGPGLLLPLPLLLLLPPQPALALDPGLQPGNFSADEAGAQLFAQSYNSSAEQVLFQSVAASWAHDTNITAENARRQEEAALLSQEFAEAWGQKAKELYEPIWQNFTDPQLRRIIGAVRTLGSANLPLAKRQQYNALLSNMSRIYSTAKVCLPNKTATCWSLDPDLTNILASSRSYAMLLFAWEGWHNAAGIPLKPLYEDFTALSNEAYKQDGFTDTGAYWRSWYNSPTFEDDLEHLYQQLEPLYLNLHAFVRRALHRRYGDRYINLRGPIPAHLLGDMWAQSWENIYDMVVPFPDKPNLDVTSTMLQQGWNATHMFRVAEEFFTSLELSPMPPEFWEGSMLEKPADGREVVCHASAWDFYNRKDFRIKQCTRVTMDQLSTVHHEMGHIQYYLQYKDLPVSLRRGANPGFHEAIGDVLALSVSTPEHLHKIGLLDRVTNDTESDINYLLKMALEKIAFLPFGYLVDQWRWGVFSGRTPPSRYNFDWWYLRTKYQGICPPVTRNETHFDAGAKFHVPNVTPYIRYFVSFVLQFQFHEALCKEAGYEGPLHQCDIYRSTKAGAKLRKVLQAGSSRPWQEVLKDMVGLDALDAQPLLKYFQPVTQWLQEQNQQNGEVLGWPEYQWHPPLPDNYPEGIDLVTDEAEASKFVEEYDRTSQVVWNEYAEANWNYNTNITTETSKILLQKNMQIANHTLKYGTQARKFDVNQLQNTTIKRIIKKVQDLERAALPAQELEEYNKILLDMETTYSVATVCHPNGSCLQLEPDLTNVMATSRKYEDLLWAWEGWRDKAGRAILQFYPKYVELINQAARLNGYVDAGDSWRSMYETPSLEQDLERLFQELQPLYLNLHAYVRRALHRHYGAQHINLEGPIPAHLLGNMWAQTWSNIYDLVVPFPSAPSMDTTEAMLKQGWTPRRMFKEADDFFTSLGLLPVPPEFWNKSMLEKPTDGREVVCHASAWDFYNGKDFRIKQCTTVNLEDLVVAHHEMGHIQYFMQYKDLPVALREGANPGFHEAIGDVLALSVSTPKHLHSLNLLSSEGGSDEHDINFLMKMALDKIAFIPFSYLVDQWRWRVFDGSITKENYNQEWWSLRLKYQGLCPPVPRTQGDFDPGAKFHIPSSVPYIRYFVSFIIQFQFHEALCQAAGHTGPLHKCDIYQSKEAGQRLATAMKLGFSRPWPEAMQLITGQPNMSASAMLSYFKPLLDWLRTENELHGEKLGWPQYNWTPNSARSEGPLPDSGRVSFLGLDLDAQQARVGQWLLLFLGIALLVATLGLSQRLFSIRHRSLHRHSHGPQFGSEVELRHS
As for B1, the localisation_or_trafficking entry in data set [1] is recorded as “no change”. In data set [2], the expression_or_secretion result is on record as “no change”.

For the origin of these results see publication PMC3929087.
